Reference: patent publication US20260035447A1 (SCHOLAR ROCK, published 2026)

Molecular target: T1, proGDF11 (Mus musculus, UniProt Q9Z1W4)
T1 construct: The text calls it recombinant mouse GDF11 / rGDF11, and the sheet labels it '10x proGDF11'; also called recombinant mouse GDF11; rGDF11 (murine)
T1 sequence (proprotein, looked up): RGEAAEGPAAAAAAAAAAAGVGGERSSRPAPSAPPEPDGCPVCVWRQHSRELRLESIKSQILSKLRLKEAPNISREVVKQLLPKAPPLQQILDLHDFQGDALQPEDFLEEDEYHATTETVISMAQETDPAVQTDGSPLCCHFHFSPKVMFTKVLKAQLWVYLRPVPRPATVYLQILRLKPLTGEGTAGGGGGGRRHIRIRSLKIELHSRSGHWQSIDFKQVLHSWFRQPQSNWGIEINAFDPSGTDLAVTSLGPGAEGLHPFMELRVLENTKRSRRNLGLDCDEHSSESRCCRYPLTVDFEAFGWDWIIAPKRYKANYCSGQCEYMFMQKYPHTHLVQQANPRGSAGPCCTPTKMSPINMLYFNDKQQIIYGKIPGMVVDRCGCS
Assay: recombinant protein absorption: Ab10 at 50 µg/mL pre-incubated overnight with 10-fold molar excess of recombinant mouse GDF11, then used as primary antibody for immunofluorescence on mouse tibialis anterior sections; read-out is retained tissue pro/latent GDF8 staining
Description: Tibialis anterior (TA) muscles were fixed in ice cold 4% paraformaldehyde (EMS), PBS for 30 min, incubated overnight in 10% sucrose, PBS at 4° C., then incubated overnight in 20% sucrose, PBS. Muscles were then mounted on cork with tragacanth (Sigma) and frozen in liquid nitrogen cooled isopentane (Sigma) for cryosectioning. 10 μm sections of TA muscle were permeabilized with 0.1% Triton-X 100 (Sigma), PBS for 20 minutes, washed once with 0.05% Triton-X 100, PBS (PBS/T), and then incubated in Mouse IgG blocking reagent (Vector Lab) diluted at 1 drop per 1.5 mL PBS/T for 1 h. Sections were washed once with PBS/T and then incubated in 10% Normal Goat Serum (Sigma), 1% Blocking powder (Perkin Elmer), PBS/T (NGB) for 30 minutes at room temperature. Primary antibodies (Rabbit anti-laminin, 1:5000, Abcam; Ab10, […]; HuNeg, 50 μg/mL,) were diluted in NGB and applied to sections overnight at 4° C. Sections were washed 3 times with PBS/T, and then incubated in secondary antibodies (Alexa Fluor 488 conjugated Goat anti-Rabbit, 1:1000, Invitrogen; Alexa Fluor 594 conjugated Goat anti-Human IgG FCY, 1:500, Jackson ImmunoResearch) diluted in NGB for 1 h. Sections were then incubated in 350 nM DAPI (Thermo), PBS/T for 5 minutes, washed twice with PBS/T, and then mounted with Vectashield (Vector Laboratories). […]

B1: anti-pro/latent GDF8 antibody, Ab10 (antibody, V domains shown)
VH: EVQLVQSGGGVVQSGRSLRLSCVASGFSFSNYGMHWVRQAPGKGLEWLAFIWYDGSNKWYADSVKGRFTISRDNSKNALYLQMNSLRAEDTAVYYCARDRYSSSWGGGFDYWGQGTVLTVSS
VL: NFMLTQPHSVSESPGRTVTIPCSGRGGSIASDSVQWYQQRPGSAPTTIIYEDNQRPSGVPDRFSGSVDSSSNSASLTISGLRTEDEADYYCQSYDASSLWVFGGKTKLTVLG
notes: The VL as printed runs into the start of the lambda constant region
  binding result: no binding
